experiment: yeast display, Sf9 membrane polyspecificity reagent, FACS + sequencing; frameworks hold sequencing errors
Procedure, shortened: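 Nanobodies from a synthetic yeast display library (Saccharomyces cerevisiae BJ5465), induced 36–48 hours with galactose, were stained 1 hour at 4 °C with 10% biotinylated, detergent-solubilized Sf9 membrane reagent, enriched on streptavidin microbeads, then FACS-sorted. Anti-HA (expression) and streptavidin (reagent binding) fluorescence set low and high (top ~1%) gates. Polyreactivity labels come from the gate of origin. Genes were colony-PCR amplified, MiSeq 2 × 250 sequenced and filtered by CDR length.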

Row | Sequence | polyreactivity (PSR sort gate)
1 | QVQLVESGGGLVQAGGSLRLSCAASGSTFGNAMGWYSQAPGKERELVAAISGSGSDTYYADSVKGRFTISRDNAKNPVYLQMNSLKPEDTAVYSWATETHRLDKGTDYGYDYWGQGTQVTVSS | low polyreactivity
2 | QVQLVESGGGLVQAGGSLRLSCAASGRILRDYDMGWYRQSPGKERELVAAINWSDGSTYYADSVKGRFTISRDNAKNTVYLQMNSLKPEDPAVYYCAASRWRPLERGTTWLHDYWGQGTQVTVSS | low polyreactivity
3 | QVQLVDSGGGLVQAGGSLRLSCAASGRIFSRYAMGGYRQAPGKERQLVAAITIGGRTNYADSVKGRFTFSRDNAKNTVYLQMNSLKPEDSAVYYCAVVLYTRYPPRVRYYYWGQGTQVTVSW | high polyreactivity
4 | QVQLVESGGGLVQAGGSLRLSCAASGITFYQYAMGWYRQAPGKERELVAGINSGGSTNYADSVKGRFTISRDNAKNTVYLQMNSLKPEDTAVYYCAAPWGWARRYRVYGGYYWGQGTQVTVSS | high polyreactivity
5 | QVQLVESGGGLVQAGGSLRLSCAASGRIFGYYVMGWYRQAPGKERELVAAINYDGGSTYYADSVKGRFTISRDNAKNTVYLQMNSLKPEDTAVYYCAAAIGNSEYGWRYDYWGQGTQVTVSS | low polyreactivity
6 | QVQLVESGGGLVQAGGSLRLSCAASGSTFFSNAMGWSRQAPGKERELVAAISWSGGSTYYADSVKGRFTISRDNAKNTVYLQMNSLKPEDTAVYYCAASFWTDYYRYDYWGQGSQVTVSS | low polyreactivity
7 | QVQLVESGGGLVQAGGSLRLSCAASGSTFAGNAMGWYRQAPGKERELVAAISSSGAGTYYADSVKGRFTISRDNAKNTVYLQMNSLKPEDTAVYYCNVGSRALRRRVRSVSFDYWGQGTQVTVSS | low polyreactivity
8 | QVQLVESGGGLVQAGGSLRLSCAASGFIFVKYAIGWYRTAPGKERELVAAITTSGTGTFYADSVKGRFTISRDNAKNTVYLQMNSLKPEDTAVYYCNALGHPGDDWGQGTQVTVSS | low polyreactivity
9 | QVQLVESAAGLVQAGGSLRLSCPASARILRYYAMGWYRQAPGKERELVAAISPRGGRTYYADSVKGRFTISRDNAKNTVYLQMNSLKPEDTAVYYCASPGYFTTPSGSYDYWGQGTQVTVSS | high polyreactivity
10 | QVQLVESGGGLVQAGGSLRLSCAASGRTFGRNDMAWYRQAQGKERELVAGISIGGGTTYYADSVKGRFTISRDNAKNTVYLQMNSLKPEDTAVYYCAARSWSYLHRYGYWGQGTQVTVSS | high polyreactivity
11 | QVQLVESGGGLVQAGGSLRLSCAASASTLYRTAMGWYRPAPGKEREMVAAINYRGTRTYYADSVKGRFTISRDNAKNTVYLLMKSLNPEDTAVYYCAKDYSQFVTYPYDYWGQGTQVSVSS | low polyreactivity
12 | QVQLVESGGGLVQAGGSLRLSCAASGSICAYAMGWYRQAPGKERELVASISTSTDITYADSVKGRFTISRDNAKNTVYLQMNSLKPEDTAVYYCAATYWQWWGWYDYWGQGTQVTVSS | high polyreactivity
13 | QVQLVESGRGLVQAGGSLRLSCAASGSIFYNNAMGWYRQAPGKERELVAAIRSTGTRTYYADSVKGRFTISRDNAKNTVYLQMNSLKPEDTAVYYCAVGDYGLWSYDCWGQGTQVTVSS | low polyreactivity
14 | QVQLVESGGGLVQAGGSLRLSCAASGRIFWDYAMGWYRQAPGKERELVAVITFSGDSTYYADSVKGRFTISRDYAKNTVYLQMNSLKPEDTAVYYCAAARAIRQFWYVATFEYWGQGTQVTVSS | low polyreactivity
15 | QVHLVESGGGLVQAGGSLRLSCAASGFIFRSYAMGWYRQAPGKEREFVAAITTRGTGTYYADSVKGRFTISRDNEKNTFYLQMNSLKPEDTAVYYCAARRGWGDDYWGQGTQVTVSS | high polyreactivity
16 | QVQLVESGGGLVQAGGSLRLSCAASGIIFYQYAMGWYRQAPGKERELVAAINTSGGSTYADSVKGRFTISRDNAKNTVYLQMNSLKPEDTAVYYCAASYRYVRWKWGYNYWGQGTQVTVSS | high polyreactivity
17 | QVQLVESGGGLVQAGGSLRLSCAASGFIFRTYAMGWYRQAPGKERELVATITGDGSTNYADSVKGRFTISRDHAKNTVYLQMNSLKPEDTAVYYGSRDDRLAGDYWGQGSQVTVSS | low polyreactivity
18 | QVQLVESGGGLVQAGGSLRLSCAASGSTFFGYAMGWYREAPGKERELVAAISSRGGSTYYADSVKGRFTISRDNAKKTVYLQMNSLKPEDTAVYYCNKVYHYPYYYWGQGTQVTVSS | high polyreactivity
19 | QVQLVESGGRLVQAGGSLRLTCAASGSTFIIYAIGWSRQAPGQERELVAASTSGGSTYYADSVKGRFRISRDNAKNSVYLQMNSLKQEDTAVYYCAARAWRGSFRDGYWGQGTQVTVSS | high polyreactivity
20 | QVHLVESVGGLVQAGGSLRLSCAASGFIFNRNAMGRYRQAPGKERELVAAITRAGSTSYADSVKGRFTISRDNAKNTVYLQMNSLKPEDTGVYYCAAKPFWLYAPRGWRYHYGYWGQGTQVTVSS | high polyreactivity
21 | QVHLVESGGGLVQAGGSLRISCAASGIIFYTYARGWYRQAPGKERELVAAISRSGGSTYYADSVKGRFTISRDNAKYTVYLQMNSRKPEDTAVDYCAADSTYRSTIQDYYWGQGTQVSVSS | high polyreactivity
22 | QVQLVESGGGLVQARGSLRLSCAASGRTFVDYVMGWYRQAPGKERELVAAITYSGGSTSYADSVKGRFTISRDYAKNNFNLQMNSLKPEDTAVYYCNADGDHPYSRNDYWGQGTQVTVSS | low polyreactivity

Source: the nanobody polyreactivity screen of Harvey et al. (2022)
